The results in this text go back to patent publication US20260250379A1 (HANGZHOU SUMGEN BIOTECH, published 2026).

Substitutions are numbered along the chain they refer to.

To fix the notation:
B1: humanized antibody RB4-G1-018 (antibody, human IgG1, kappa, V domains shown)
VH: QVQLVQSGAEVKKPGASVKVSCKASGYTFTSYWMHWVRQAPGQGLEWIGEINPSNGRTNYNEKFKSRATLTVDKSTSTAYMELSSLRSEDTAVYYCARDRYDEGNAMDYWGQGTTVTVSS
VL: DIQMTQSPSSLSASVGDRVTITCRASQDITNYLNWYQQKPGKAPKLLIYYTSRLHSGVPSRFSGSGSGTEYTLTISSLQPDDFATYYCQQGDTLPRTFGQGTRLEIKR
B2: humanized antibody RB4-G1-022 (antibody, human IgG1, kappa, V domains shown)
VH: B1 VH
VL: B1 VL with E70D, L73F, D81E, F83I
B3: humanized antibody RB4-G1-019 (antibody, human IgG1, kappa, V domains shown)
VH: B1 VH with I48M, A68V, A79V
VL: B1 VL
B4: humanized antibody RB4-G1-020 (antibody, human IgG1, kappa, V domains shown)
VH: B1 VH with I48M, A68V, L70M, V72R, K74T, A79V
VL: B1 VL
B5: chimeric antibody 1A2-7 (antibody, V domains shown)
VH: QVQLQQPGAELVKPGASVKLSCKASGYTFTSYWMHWVKQRPGQGLEWIGEINPSNGRTNYNEKFKSKATLTVDKSSSTAYMQLNSLTSEDSAVYYCARDRYDEGNAMDYWGQGTSVTVSS
VL: DIVMTQTTSSLSASLGDRVTISCRASQDITNYLNWYQQKPDGTVKLLIYYTSRLHSGVPSRFSGSGSGTDYSLTISNLEQEDIATYFCQQGDTLPRTFGGGTKLEIK
B6: chimeric antibody 3G9-1 (antibody, V domains shown)
VH: QVQLQQPGAELVKPGASVKLSCKASGYTFTSYWMHWVKQRPGQGLEWIGEINPSNGRTNYNEKFKSKATLIVDKSSSTAYMQLSSLTSEDSAVYYCARGIYYGYDYAMDYWGQGTSVTVSS
VL: B5 VL with V3Q, Q6H, T30S, D92N, R96P
notes: Full chains are not tied by name
B7: chimeric antibody 3A2-18 (antibody, V domains shown)
VH: B5 VH with Q1E, M81V
VL: B5 VL
notes: as for B6
B8: chimeric antibody 5E11-2 (antibody, V domains shown)
VH: EVKLEESGGGLVQPGGSMKLSCAASGFTFSDAWMDWVRQSPEKGLEWVAEIRSKPNNHATYYAESVKGRFTISRDDSKSSVYLQMNSLRAEDTGIYYCTRTTDYSMDYWGQGTSVTVSS
VL: DIQMTQSPASLAVSLGQRATISCRASQSVSASSYSYMHWYQQKPGQPPKLLIKYASNLQSGVPARFSGSGSGTDFTLNIHPVEEEDSATYYCQHSWEIPRTFGGGTKLEIK
notes: as for B6

T7 sequence (Q8NHL6 24-461): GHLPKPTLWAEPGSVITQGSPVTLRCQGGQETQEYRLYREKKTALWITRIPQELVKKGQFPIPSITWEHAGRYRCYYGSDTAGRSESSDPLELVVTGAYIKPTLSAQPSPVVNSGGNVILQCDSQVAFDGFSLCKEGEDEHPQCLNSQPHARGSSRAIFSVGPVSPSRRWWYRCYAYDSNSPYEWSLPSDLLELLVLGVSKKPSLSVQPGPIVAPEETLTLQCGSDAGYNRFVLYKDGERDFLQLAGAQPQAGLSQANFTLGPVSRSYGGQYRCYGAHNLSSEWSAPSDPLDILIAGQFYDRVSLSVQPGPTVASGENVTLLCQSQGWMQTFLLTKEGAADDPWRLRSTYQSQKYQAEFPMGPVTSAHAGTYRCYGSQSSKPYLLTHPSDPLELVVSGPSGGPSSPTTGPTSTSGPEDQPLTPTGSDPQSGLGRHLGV

In the first experiment the target is human LILRB4 on 293T-hLILRB4 cells (human, UniProt Q8NHJ6 22-448). In words: cell-based or functional assay.
On to B1, for which the “EC50 (read off the curve); ADCC reporter induction multiple” value was approximately 60 ng/mL.
Same read-out and setting: the result for B2 reads approximately 50 ng/mL; that for B3, approximately 60 ng/mL.
Turning to B4, the “EC50 (read off the curve); ADCC reporter induction multiple” value was approximately 60 ng/mL.

The target in another experiment is T1, LILRB4 (Beijing ACROBiosystems, article number LI4-H52H7, 6xHis label) (human, UniProt Q8NHJ6 22-259).
T1 construct: Analyte (mobile phase) in the BIACORE 8K assay; also called Human LILRB4; not shown: 6xHis label
In words: SPR, BIACORE 8K; antibody captured on Protein A chip, LILRB4-6xHis as analyte. As to the method: A BIACORE 8K biomacromolecule interactor (GE Company) was adopted to analyze the affinity of an antibody. A Series S Sensor Chip Protein A Chip (GE Company) was used for capturing an antibody to be detected, the concentration of the antibody to be detected was set to be 15 μg/mL, and the sample was fed at a speed of 10 μl/min until RU=500; LILRB4 (Beijing ACROBiosystems, article number: LI4-H52H7, 6×His label, and the theoretical molecular weight: 28.2 Kda) was used as a mobile phase, 6 concentration gradients (0.0977 nM-200 nM) were used, and the binding time was 180 sec; and the dissociation time was 300 sec. The result of the affinity of the antibody to be detected is as set forth in follows: […]
In general terms: In SPR one partner is held on a chip, and binding of the other changes the refractive index at the surface.
Usually Kd stands for the concentration at which binding is half-saturated. The term koff denotes the rate constant with which the complex falls apart. A high value points to a short-lived complex. As a reminder, the kon is the rate constant with which the complex forms. In turn, B1 returned a dissociation constant Kd of 2.81 nM, a koff of 0.00433 s⁻¹ and a kon of 1.54e+06 M⁻¹ s⁻¹.
For B2, the Kd amounted to 2.33 nM, the dissociation rate constant (koff) amounted to 0.00418 s⁻¹ and the association rate constant (kon) was 1.8e+06 M⁻¹ s⁻¹.
The like results for B3 were, in that order, 2.77 nM, 0.00343 s⁻¹ and 1.24e+06 M⁻¹ s⁻¹.
With B4, the Kd is 3.29 nM, the koff stood at 0.00834 s⁻¹ and the kon was 2.53e+06 M⁻¹ s⁻¹.

In the next experiment the target is T2, Human LILRB4/CD85k/ILT3 Protein (ECD, His Tag), Sino Biological (human, UniProt Q8NHJ6 22-259).
T2 construct: extracellular domain; It is not tied to this bought protein; also called LILRB4 protein; not shown: His tag
In words: ELISA, human LILRB4 ECD-His coated, HRP goat anti-human IgG Fc, OD450. For orientation: An ELISA detects its analyte on a solid surface through an enzyme-linked reagent.
As a reminder, the EC50 (read off the curve) is the midpoint of the concentration-response curve. Lower therefore signals a more potent agent. As for B5, the “EC50 (read off the curve)” value is approximately 30 ng/mL.
Still for that read-out and setting: the result for B6 reads approximately 20 ng/mL; that for B7, approximately 30 ng/mL.
Same read-out and setting: to B8 belongs approximately 50 ng/mL.

The target of the next experiment is T3, LILRB4 on LILRB4 effector reporter cells (jurkat-LILRB4) (UniProt Q8NHJ6 22-448). Nature of the experiment: cell-based or functional assay.
B5: the “EC50 (read off the curve); luciferase RLU, blocking of APOE” value (from here on “EC50 (read off the curve) … of APOE”) was approximately 0.03 ng/mL.

A further experiment addresses T4, LILRB4 on human mononuclear leukemia cells THP-1 (human, UniProt Q8NHJ6 22-448).
T4 construct: whole, on cells; The protein is endogenous to the cells; also called LILRB4 positive cells THP-1
Nature of the experiment: flow cytometry on THP-1 cells, PE goat anti-human IgG Fc, MFI. (A flow cytometer gives signals particle by particle.)
On to B1, for which the “EC50 (read off the curve)” value is approximately 30 ng/mL.
Still for that read-out and setting: to B2 belongs approximately 40 ng/mL; to B3, approximately 30 ng/mL; to B4, approximately 30 ng/mL.

The target in a further experiment is T5, Human LILRB2/ILT4/LIR-2 Protein (ECD, His Tag), Sino Biological (human, UniProt Q8N423 22-460).
T5 construct: extracellular domain; not shown: His tag
T5 sequence (Q8N423 22-460): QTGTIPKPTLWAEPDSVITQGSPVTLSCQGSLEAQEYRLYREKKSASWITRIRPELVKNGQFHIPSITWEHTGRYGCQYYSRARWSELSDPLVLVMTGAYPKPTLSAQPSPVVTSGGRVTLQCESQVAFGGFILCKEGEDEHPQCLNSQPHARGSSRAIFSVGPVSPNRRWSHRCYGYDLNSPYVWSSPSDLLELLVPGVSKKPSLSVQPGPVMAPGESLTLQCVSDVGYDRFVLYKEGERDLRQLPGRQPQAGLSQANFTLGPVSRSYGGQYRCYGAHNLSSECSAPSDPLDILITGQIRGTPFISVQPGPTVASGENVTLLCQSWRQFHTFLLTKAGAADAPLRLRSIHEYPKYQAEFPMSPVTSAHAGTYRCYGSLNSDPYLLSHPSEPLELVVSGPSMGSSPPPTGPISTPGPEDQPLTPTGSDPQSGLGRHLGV
Nature of the experiment: ELISA, LILRB family proteins (His tag) coated, antibody at 10 ug/mL, HRP goat anti-human IgG Fc, OD450.
With B5, the binding result is “no binding (tested: 10 ug/mL)”.
Turning to B6, the binding result is listed as “no binding (tested: 10 ug/mL)”.
Same read-out and setting: to B7 belongs “no binding (tested: 10 ug/mL)”; to B8, “no binding (tested: 10 ug/mL)”.

The target in the next experiment is T6, Human LILRB3/LIR3/ILT5/CD85a Protein (ECD, His Tag), Sino Biological (human, UniProt O75022 24-443).
T6 construct: extracellular domain; not shown: His tag
T6 sequence (O75022 24-443): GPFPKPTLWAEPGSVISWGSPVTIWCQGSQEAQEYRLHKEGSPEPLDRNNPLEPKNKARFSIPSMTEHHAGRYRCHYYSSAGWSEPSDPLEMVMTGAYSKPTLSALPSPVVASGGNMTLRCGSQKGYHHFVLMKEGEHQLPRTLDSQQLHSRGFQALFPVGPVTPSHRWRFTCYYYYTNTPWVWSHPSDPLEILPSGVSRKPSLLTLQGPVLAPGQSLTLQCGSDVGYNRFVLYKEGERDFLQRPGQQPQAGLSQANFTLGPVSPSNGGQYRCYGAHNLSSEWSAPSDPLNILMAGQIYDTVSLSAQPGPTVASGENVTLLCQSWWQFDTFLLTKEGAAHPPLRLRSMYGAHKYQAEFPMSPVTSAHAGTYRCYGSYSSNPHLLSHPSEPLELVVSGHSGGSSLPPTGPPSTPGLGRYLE
Described as above.
As for B5, the binding result was “no binding (tested: 10 ug/mL)”.
On the same count and under the same terms, the result for B6 reads “no binding (tested: 10 ug/mL)”; that for B7, “no binding (tested: 10 ug/mL)”.
Same read-out and setting: the result for B8 reads “no binding (tested: 10 ug/mL)”.

A further experiment addresses T7, Human LILRB1/CD85/ILT2/ILR1 Protein (ECD, His Tag), Sino Biological (human, UniProt Q8NHL6 24-461).
T7 construct: extracellular domain; not shown: His tag
The description is as above.
As to B5, the binding result is “no binding (tested: 10 ug/mL)”.
On to B6, for which the binding result is given as “no binding (tested: 10 ug/mL)”.
Consider B7, for which the binding result is reported as “no binding (tested: 10 ug/mL)”.
On the same count and under the same terms, to B8 belongs “no binding (tested: 10 ug/mL)”.

The target of another experiment is T8, Human LILRB5/CD85c/LIR-8 Protein (ECD, His Tag), Sino Biological (human, UniProt O75023 24-458).
T8 construct: extracellular domain; not shown: His tag
T8 sequence (O75023 24-458): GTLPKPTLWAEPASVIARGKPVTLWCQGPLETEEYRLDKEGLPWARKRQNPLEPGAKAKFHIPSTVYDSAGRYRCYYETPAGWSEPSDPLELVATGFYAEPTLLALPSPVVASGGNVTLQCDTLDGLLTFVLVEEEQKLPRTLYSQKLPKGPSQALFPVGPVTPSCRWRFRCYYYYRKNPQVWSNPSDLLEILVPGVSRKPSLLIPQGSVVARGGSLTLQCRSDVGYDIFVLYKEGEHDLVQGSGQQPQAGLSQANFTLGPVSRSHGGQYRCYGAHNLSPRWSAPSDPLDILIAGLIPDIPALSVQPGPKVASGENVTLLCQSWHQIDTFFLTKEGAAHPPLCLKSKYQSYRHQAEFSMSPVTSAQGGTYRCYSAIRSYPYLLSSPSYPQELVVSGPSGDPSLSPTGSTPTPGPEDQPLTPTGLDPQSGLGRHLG
The experiment is described as above.
As to B5, the binding result is on record as “no binding (tested: 10 ug/mL)”.
The same measure, in the same setting: to B6 belongs “no binding (tested: 10 ug/mL)”; to B7, “no binding (tested: 10 ug/mL)”; to B8, “no binding (tested: 10 ug/mL)”.

The target of another experiment is T3, LILRB4 on LILRB4 effector reporter …. Nature of the experiment: cell-based or functional assay. This is another data set of the same source.
Regarding B7, the “EC50 (read off the curve) … of APOE” value is approximately 10 ng/mL.

For another experiment the target is unchanged. In words: cell-based or functional assay. This is another data set of the same source.
As for B1, the “EC50 (read off the curve) … of APOE” value is approximately 10 ng/mL.
On the same count and under the same terms, to B2 belongs approximately 20 ng/mL; to B3, approximately 10 ng/mL.
The same measure, in the same setting: to B4 belongs approximately 20 ng/mL.

For a further experiment, the target named is T2, Human LILRB4/CD85k/ILT3 Protein (ECD, …). In words: ELISA, human LILRB4 ECD-His coated, HRP goat anti-human IgG Fc, OD450. The source holds these as a separate data set.
On to B1, for which the “EC50 (read off the curve)” value was approximately 30 ng/mL.
Still for that read-out and setting: to B2 belongs approximately 30 ng/mL; to B3, approximately 30 ng/mL.
Take B4: the “EC50 (read off the curve)” value is approximately 30 ng/mL.
